Data published in paper PMC11452297.
pKd: −log10 of the molar value.

Target: C-terminal domain of FusB (residues 224-324) (Pectobacterium carotovorum)
Experiment: ITC; 480 uM PM1 in the syringe titrated into 20 uM FusB in the cell; VP-ITC, 25 °C, 20 mM sodium phosphate pH 7.5, 150 mM NaCl

## Pectocin M1 (natural protein)
  pKd: 5.09
  dH: -6 kcal/mol
